{"source": "the DeepSol protein solubility set"}
{"experiment": "soluble on expression in E. coli; label from the status in PepcDB or PDB records"}
{"sequence": "MEQPTRPGFATRRRTQLFDALVDLILVEGFAHLTLDEIANRLRCSKSTLYTLAGSKEQLVRAATVHFFRRATDDVESHIEPIAGARERITAYLSAVGTALSAASDQFMADLDAFPPAREVYERNTQFAAGRVQELITEGVAGGDFRDVHAAFAADLAATMMVRIQQRGVRDSTGLDDAHAYAELAAILTGGISA", "soluble on expression in E. coli": "not soluble"}
{"sequence": "MEQTTIDGISLSLAGPVELTLRWVGQDELLKQLLAAWMVIDEKDIPFNPRLIGKPGVGKTTLAYAAARRLDRPVYLFQATMDTRPEDLIITPVIGPDGKIQYAASALVSAMLKGGVLILDEGNRMSEKAWASLAPLLDDRRYVESIITGLRVPAHRDFRIVVTMNEDSSTFEVPEYIHSRLQPQIFIDFPEADEELLILKENLPFAPSRILAYVVDFLQRAHAADELYSVRDGINIARYALKMMAATERDSVELLPLAVERVLGDEALRYLKLEHHHHHH", "soluble on expression in E. coli": "not soluble"}
{"sequence": "MERINFIFGIHNHQPLGNFGWVFEEAYNRSYRPFMEILEEFPEMKVNVHFSGPLLEWIEENKPDYLDLLRSLIKRGQLEIVVAGFYEPVLAAIPKEDRLVQIEMLKDYARKLGYDAKGVWLTERVWQPELVKSLREAGIEYVVVDDYHFMSAGLSKEELFWPYYTEDGGEVITVFPIDEKLRYLIPFRPVKKTIEYLESLTSDDPSKVAVFHDDGEKFGVWPGTYEWVYEKGWLREFFDAITSNEKINLMTYSEYLSKFTPRGLVYLPIASYFEMSEWSLPAKQAKLFVEFVEQLKEEGKFEKYRVFVRGGIWKNFFFKYPESNFMHKRMLMVSKAVRDNPEARKYILKAQCNDAYWHGVFGGIYLPHLRRTVWENIIKAQRYLKPENKILDVDFDGRAEIMVENDGFIATIKPHYGGSIFELSSKRKAVNYNDVLPRRWEHYHEVPEATKPEKESEEGIASIHELGKQIPEEIRRELAYDWQLRAILQDHFIKPEETLDNYRLVKYHELGDFVNQPYEYEMIENGVKLWREGGVYAEEKIPARVEKKIELTEDGFIAKYRVLLEKPYKALFGVEINLAVHSVMEKPEEFEAKEFEVNDPYGIGKVRIELDKAAKVWKFPIKTLSQSEAGWDFIQQGVSYTMLFPIEKELEFTVRFREL", "soluble on expression in E. coli": "soluble"}
{"sequence": "MERKMATHFARGILTEGHLISVRLPSQCHQEARNIPPHRQSRFLASRGLLAELMFMLYGIGELPEIVTLPKGKPVFSDKNLPSFSISYAGNMVGVALTTEGECGLDMELQRATRGFHSPHAPDNHTFSSNESLWISKQNDPNEARAQLITLRRSVLKLTGDVLNDDPRDLQLLPIAGRLKCAHVNHVEALCDAEDVLVWSVAVTPTIEKLSVWELDGKHGWKSLPDIHSRANNPTSRMMRFAQLSTVKAFSPN", "soluble on expression in E. coli": "not soluble"}
{"sequence": "MESADGEIEALCSIWDGVHVESKLEASRRYLKHKIKSLEDESTSASVLIEMTVSEGYPAVSPTVTLSNPRGIGEPEFRELQRQIQEIIEQNSDEMPIICQIFQHCSDFLTENQHQNMDCSICLICLASSPIIVTACDHFMHFACFNRYLTECLTGLRQEIQDAQKHMKEQVETNIFCPVCRAQLTDSNTIHNYRENVQLMIKNCKKNQKTLKNKKRRSSTTTEDVQKTIKRWHEEQRKLSKIYEKQKEKGGIIDIEEEKKRRQFFIETTTNEETDEAESTDIAENID", "soluble on expression in E. coli": "not soluble"}
{"sequence": "MESEGEAQMFADCDQKTVKQTAAKPMSSKKKQDFQALASDRQLAIVFSSMIQVSEAFDYGIGNPEYFVRISMTEEEADIAKENLESIKLENKSLKKQNSEAVALLQKTRNQDMSRIEIQQLTENRAGFFETADSMIKLINQVTPKNAKKTRQQLDQLKKQYTQYSAESIKIMNSIVKKQKADKASFERHLEALLQKQPGQQVRSELYLEHHHHHH", "soluble on expression in E. coli": "soluble"}
{"sequence": "MESIGLVEVNSIARGIEAADAMLKAAQVDLLEAKPVCPGKYIVLICGDVAAVQSSVTAGKTMAAHSVLDDFILPNVHPQVLTAISAATPLTLIKALGIIETFSIASLIVAADTAAKTGQVDLVEIRIGMGIGGKSFVTLTGDVASVESSVAAGVMLASERGMLVDKVVIPSPHDHLKRCLC", "soluble on expression in E. coli": "soluble"}
{"sequence": "MESINYQILKRSEKKLLGLFFDYFQHVIKMHETLNKLLCEADVTKREKLIQAIYEMEDFSNKSEFKLINESIWAISKNSPLTNHLRLTITIIMCSRDLERICDYANNLTKFVKHYQHLDVSIFSKLVNLHKSVLNNLKQTFASLQDKEKPLTIQFENVTKILTEFEQQYRVVLTEYYDKVKDEKLSDRIFLIDLILSVKHIERINDYCYNIIKAFLFVKNPEVFN", "soluble on expression in E. coli": "soluble"}
{"sequence": "METLTVHAPSPSTNLPSYGNGAFSLSAPHVPGAGPLLVQVVYSFFQSPNMCLQALTQLEDYIKKHGASNPLTLQIISTNIGYFCNADRNLVLHPGISVYDAYHFAKPAPSQYDYRSMNMKQMSGNVTTPIVALAHYLWGNGAERSVNIANIGLKISPMKINQIKDIIKSGVVGTFPVSTKFTHATGDYNVITGAYLGNITLKTEGTLTISANGSWTYNGVVRSYDDKYDFNASTHRGIIGESLTRLGAMFSGKEYQILLPGEIHIKESGKRAAHHHHHH", "soluble on expression in E. coli": "soluble"}
{"sequence": "METMTELNTKEMKLDALLKDMQSVVIAFSGGVDSSLLLKKAIDILGVNYVKPVVVKSELFRNEEFELALKLGQSLGVEVLETEMSELQDANIVKNTPESWYYSKRLMYSQLENIKNKLGFNYVLDGMIMDDLDDFRPGLKARDDFGVRSVLQEAKLYKSEVRELSHQHDLPVWNKPALCSLASRIPYGEELSFTKVNKVNEAEKFILSLGINHVRVRYHHNIARIEVTEDQLNNLLKLKDSIILHLKELGFDYVTMDLEGYRTGSMNEIIDTKSTSFK", "soluble on expression in E. coli": "not soluble"}
{"sequence": "METPKLSVEAIEKGTVIDHIPAGRGLTILRQFKLLHYGNAVTVGFNLPSKTQGSKDIIKIKGVCLDDKAADRLALFAPEAVVNTIDNFKVVQKRHLNLPDEIAEVFRCPNTNCAGHGEPVKSRFYVKKHNGQTRLKCHYCEKTYSRDSVAEA", "soluble on expression in E. coli": "not soluble"}
{"sequence": "METRLLVLKYDILNREAICLNRETHELLHANLVESVQPQIGQFLAVENLKIVQIDGVCFISPECGTIVIEPPAPEDCVILPKEKTDVVMFKSWIGFSSDPSHLTYDRNIGYADWYGPVNCSQFKAKNTKVAFFKYLIAVNDLDYKNTGECLMKAVQLVGVIDNRDAAEVRLKMMEFERKRIADIQRTTKQTRLIETVAYPILPSAHQPSSNHSYTGRSSCDSLRPQPVPAARKLSEQPQTVQNQAPYREQINQQRSVTNSIYGEFSGVGRTDQPLETANSRGSTEYYSGRSSSSSDQVIRNEPQLPNPAPILPESMGMVTYENGIMQIVYLRSVQKAAIHYWSKHQITTSLGSVFNCSFKPIPVQATTHWAPFEITAINNVNNEKNEVKTVGKECFALFKVDLSRPEGKFSKWTTIGGNPIFSCEIVGYVMLAHSVLGPQQNQLSILNVAQNYYNRKVAENICCFCRFVRRQVPRMMVDSHWISEDEEVEVFIWELVEIVGASELYRKRQEQLEIGNLGDTADNVKRHNDDIEMQKKRAQQEHFAQQQRPAGSSNSYQTENAQQHSMSNNMQYYHSQAPPVSSRSSISLGETAEFKNKLERTNDMMESLCDAIKKFLDNRQLKETLRGYNPRRLQALEEKLKECSEHLENN", "soluble on expression in E. coli": "not soluble"}
{"sequence": "METVPGGRWVAEIYGCDVDILEDPKMVEAALVDAVMRLGAPRDSVQSVVYKFHPQGLSAAVVSPVAAVMIHTWPEDNASATLDLYFYRDGVDPEEVLKGLTRAFGAKEESAFRYWRGTEHAIKRRGFGAEKAE", "soluble on expression in E. coli": "soluble"}
{"sequence": "MEVLVIAPRICVNVIRTLPIGLPVGVEKRLRAFDPDVIHLASPYAFAARAAFIAQKMAVPCVAVYQTDVAAYQQHYHLTWLKNLEHHHHHH", "soluble on expression in E. coli": "not soluble"}
{"sequence": "MEVPEIEKQIGINLYSTDTTGLGGQLRQEIEDFIVKEITNREEGEEGKYLIVELTKRDWDTHHLTRTLSRILQVSQKRISVAGTKNKRALTTQKISIFDTDASEIEKIHLKDIELKVLGRSRKSVELGDLWGNDFRITVRNIENSPEETEALLKKTTDEILAQGGVPNFFGIQRFGSVRPVTHLVGKAIVEGNFEKAALLYIAEPFPEEPEETKNARQFVKDTLDFKEGLKTYPLRLGHERAMMNHLIANPEDYSGSFRVLPQNLYRMFVHGYQSYIYNIILCRRIEAGIPLNRAVEGDIVCFRNEVGLPDSSKTEKVTSETVNAMNRLLKLGRAFITAPLPGYNTEFASGIPGEIENGVLKELGVSLEGFNIEKFPEMSSKGTRREVLLEVKPKFEAGEDELNPGKSKAVLEFMLPKGSYATTVLREYMKVNPLQMSLEHHHHHH", "soluble on expression in E. coli": "soluble"}
{"sequence": "MEVQTETYRAAMNGTLERHFSDMIAVIPTRITIEQLKQRLENIATKVDELKIVYSDETSLIVELHMDETIIPYELHIDEANDPEEYKMYNRQDSTIVDRNFEDAAFGTEIFTRTLFVGDVLDCFFQQIQFLWNLAPDLLFVIDSSAAMKVISRNYIEYHVENELLPDIPDLYVIHSVYEDDKEGEPTQYWFHTHGLLRAGVTEIELIIPNRISSYYGIGDLFQTFANNAVENGQVPMNEPIVIAHSQQGSIHTVAVPWEKGLSYIGHKTSMDQLSSIEDEEVKLQPIDAQNTFLGGMDARDEYHQSPSVLLFKFNTSEEYIESFFKEHEEATGLMFYKTNSETDRMAYNAKNTFGYFSNIFQIEKSNEEFRFLAKFGVSYEEGKSEHMWFEMQHITEDLIQGILINEPYFIEDMSEGNSYHLDFDNLTDWVIYAGDAVIKPNNLYMFIGE", "soluble on expression in E. coli": "not soluble"}
{"sequence": "MEVYIPSFRYEESDLERGYTVFKIEVLMNGRKHFVEKRYSEFHALHKKLKKCIKTPEIPSKHVRNWVPKVLEQRRQGLETYLQAVILENEELPKLFLDFLNVRHLPSLPKAESCGSFDETESEESSKLSHQPVLLFLRDPYVLPAASDFPNVVIEGVLHGIFYPHLQPR", "soluble on expression in E. coli": "soluble"}
{"sequence": "MEYFNVGKIVNTQGLQGEMRVLSVTDFVEERFKKGQVLALFDEKNQFVMDIEIASHRKQKNFDIIKFKGMYHINDIEKYKGFTLKVAEDQLSDLKDGEFYYHEIIGLDVYEGEELIGKIKEILQPGANDVWVVERHGKRDLLLPYIPPVVLEVDLSNQRVQVELMEGLDDEDLEHHHHHH", "soluble on expression in E. coli": "soluble"}
{"sequence": "MFAGCATYAGLNFDQLFGPQLVRERTASVETPQADFFQREVKPIVDNRCVVCHACYDAPCQLKLSSVEGIDRGASKALVYEGTRLTAAAPTRLFEDAETTQEWRDAGFHPVLNERDQSMAANLEAGLIARLLQQKERHPLPDQVQLEGFDFSIDREQTCPTIEEYEQYEKDNPNWGMPFGMPNLTNSEYHTLMTWLENGAIMNMHTPISDQEQAKINQYETLLNHSDLKNQLMSRYIYEHLFLSHLYFSELSEKPRFFTLVRSATPPGQPVKRISTRRPYDDPGVERVYYRIIPEQGTIVDKTHMPFALNKQRISNWKKWFIEADYSVTQLPSYEPEVAANPMTAFIDMPVKSRFKFMLDNAQNTIMAYIKGPVCRGQLALNVINDRFWVFFLDPDKADIPEVNEFYRSQADNLKLPAEQESNTLPVTNWVKYARQQARYLEAKSEFTNNWFKHGENLSTDVIWDGNGTNPNAALTVFRHFDSASVVQGLVGEQPKTVWILDYALLERIHYLLVAGFDVYGNFGHQLMTRMFMDFLRLEGESNFVTLLPADMRHQLQSSWYQDQSPQLSDFLQRNVKPFNQPTSVVYKTDDPKTELLNMMRKRLSPVLLPRYEITDTALSDKTEKELKRIGQVRGEGLQTVPQITMLMVRSKSGKDELFTLLHNNAHTNISSLFDEESNRDFANDDMTIVRGVVGSYPAAFFSLKENQVKEFVDQFSAIQNEADYVKLLDSFAIRRSSEKFWPFSDRIHNWYRTNQPIEFGLLDYNRFENR", "soluble on expression in E. coli": "not soluble"}
